# Results as given in paper PMC7901142 (The Journal of Cell Biology, 2021).
# B1: SEMA4C (aa 686–833) (domain or fragment)
# chain: LRRRLREELEKGAKATERTLVYPLELPKEPTSPPFRPCPEPDEKLWDPVGYYYSDGSLKIVPGHARCQPGGGPPSPPPGIPGQPLPSPTRLHLGGGRNSNANGYVRLQLGGEDRGGLGHPLPELADELRRKLQQRQPLPDSNPEESSV
# Biological target: SNX27-PDZ WT (human, UniProt Q96L92 43-136)
# Experiment: ITC
binder,measurement,value
B1,Kd,4.5 µM
